Consider 15 molecules from patent US20090203538A1 (INSTITUTE FOR ANTIBODIES, published 2009).

Test [1] concerns the target T1, HGFR (Hepatocyte growth factor receptor) (Homo sapiens (Human), UniProt P08581 25-1390).
T1 construct: also called Met
Briefly: antigen assigned by the filing's classifying and identification method; details for this clone not given.

For test [2], the target named is CD44 (Homo sapiens (Human), UniProt P16070 24-742). Described as above.
The target in test [3] is T2, LAR (Leukocyte common Antigen-Related) (Homo sapiens (Human), UniProt P10586 30-1907, limits assumed).
T2 construct: also called PTP-LAR; protein tyrosine phosphatase receptor type F (PTPRF)
The description is as above.

Test [4] deals with T3, CD73 (Homo sapiens (Human), UniProt P21589 27-549, limits assumed).
T3 construct: also called 5-prime-ribonucleotide phosphohydrolase
T3 sequence: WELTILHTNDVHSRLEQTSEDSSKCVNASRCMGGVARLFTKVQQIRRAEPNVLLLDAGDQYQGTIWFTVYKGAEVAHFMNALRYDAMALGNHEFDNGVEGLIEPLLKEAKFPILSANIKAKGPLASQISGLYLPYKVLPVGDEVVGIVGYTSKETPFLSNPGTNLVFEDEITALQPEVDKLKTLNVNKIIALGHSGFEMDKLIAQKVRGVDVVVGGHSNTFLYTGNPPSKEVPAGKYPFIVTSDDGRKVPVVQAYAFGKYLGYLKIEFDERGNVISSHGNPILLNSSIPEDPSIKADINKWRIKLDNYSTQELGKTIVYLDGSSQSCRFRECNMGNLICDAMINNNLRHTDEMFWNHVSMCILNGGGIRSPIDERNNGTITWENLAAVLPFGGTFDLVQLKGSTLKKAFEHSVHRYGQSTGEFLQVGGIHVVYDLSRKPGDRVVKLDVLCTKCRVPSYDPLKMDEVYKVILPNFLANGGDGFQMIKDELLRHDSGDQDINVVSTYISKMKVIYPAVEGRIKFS
The description is as above.

The target in test [5] is T4, ALCAM (Activated leukocyte cell adhesion molecule) (Homo sapiens (Human), UniProt Q13740 28-583).
T4 construct: Native protein on cancer cell lines; also called CD166 antigen; CD166
T4 sequence: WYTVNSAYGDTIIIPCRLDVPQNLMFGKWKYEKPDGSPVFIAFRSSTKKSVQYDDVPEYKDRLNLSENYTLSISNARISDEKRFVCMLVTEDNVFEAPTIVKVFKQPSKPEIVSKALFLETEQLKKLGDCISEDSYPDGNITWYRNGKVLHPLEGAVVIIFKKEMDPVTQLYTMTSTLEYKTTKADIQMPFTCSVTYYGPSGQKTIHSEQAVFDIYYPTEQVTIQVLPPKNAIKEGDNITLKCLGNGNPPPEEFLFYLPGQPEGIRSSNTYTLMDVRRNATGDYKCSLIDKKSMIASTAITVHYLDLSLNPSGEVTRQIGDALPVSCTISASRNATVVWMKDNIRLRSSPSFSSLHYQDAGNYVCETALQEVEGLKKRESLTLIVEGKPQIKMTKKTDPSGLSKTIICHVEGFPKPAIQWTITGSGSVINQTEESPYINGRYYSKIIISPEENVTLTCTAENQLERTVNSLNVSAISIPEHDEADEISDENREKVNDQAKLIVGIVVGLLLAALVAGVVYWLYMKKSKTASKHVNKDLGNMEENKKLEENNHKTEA
Nature of the test: flow cytometry histograms on various cell lines, antigen identified later. (In general: In flow cytometry, cells or beads pass a laser one at a time.)

Test [6] has as its target T4, ALCAM (Activated leukocyte cell …). Nature of the test: antigen assigned by the filing's classifying and identification method; details for this clone not given.
Test [7] concerns the target T5, EpCAM (Homo sapiens (Human), UniProt P16422 24-314).
T5 chain: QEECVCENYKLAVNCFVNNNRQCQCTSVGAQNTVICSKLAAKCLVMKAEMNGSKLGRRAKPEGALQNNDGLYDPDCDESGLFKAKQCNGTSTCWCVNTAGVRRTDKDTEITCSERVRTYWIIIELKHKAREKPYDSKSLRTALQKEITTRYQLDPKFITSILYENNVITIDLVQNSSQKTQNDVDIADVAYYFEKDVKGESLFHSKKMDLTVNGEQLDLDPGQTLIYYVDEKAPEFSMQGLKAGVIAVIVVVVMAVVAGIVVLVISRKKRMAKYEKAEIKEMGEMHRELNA
The description is as above.

The target in test [8] is T4, ALCAM (Activated leukocyte cell …). Briefly: immunoprecipitation from biotin-labelled cell lysate with pp type antibody, mass spectrometry.

T1 sequence (P08581 25-1390 L1272V limits assumed): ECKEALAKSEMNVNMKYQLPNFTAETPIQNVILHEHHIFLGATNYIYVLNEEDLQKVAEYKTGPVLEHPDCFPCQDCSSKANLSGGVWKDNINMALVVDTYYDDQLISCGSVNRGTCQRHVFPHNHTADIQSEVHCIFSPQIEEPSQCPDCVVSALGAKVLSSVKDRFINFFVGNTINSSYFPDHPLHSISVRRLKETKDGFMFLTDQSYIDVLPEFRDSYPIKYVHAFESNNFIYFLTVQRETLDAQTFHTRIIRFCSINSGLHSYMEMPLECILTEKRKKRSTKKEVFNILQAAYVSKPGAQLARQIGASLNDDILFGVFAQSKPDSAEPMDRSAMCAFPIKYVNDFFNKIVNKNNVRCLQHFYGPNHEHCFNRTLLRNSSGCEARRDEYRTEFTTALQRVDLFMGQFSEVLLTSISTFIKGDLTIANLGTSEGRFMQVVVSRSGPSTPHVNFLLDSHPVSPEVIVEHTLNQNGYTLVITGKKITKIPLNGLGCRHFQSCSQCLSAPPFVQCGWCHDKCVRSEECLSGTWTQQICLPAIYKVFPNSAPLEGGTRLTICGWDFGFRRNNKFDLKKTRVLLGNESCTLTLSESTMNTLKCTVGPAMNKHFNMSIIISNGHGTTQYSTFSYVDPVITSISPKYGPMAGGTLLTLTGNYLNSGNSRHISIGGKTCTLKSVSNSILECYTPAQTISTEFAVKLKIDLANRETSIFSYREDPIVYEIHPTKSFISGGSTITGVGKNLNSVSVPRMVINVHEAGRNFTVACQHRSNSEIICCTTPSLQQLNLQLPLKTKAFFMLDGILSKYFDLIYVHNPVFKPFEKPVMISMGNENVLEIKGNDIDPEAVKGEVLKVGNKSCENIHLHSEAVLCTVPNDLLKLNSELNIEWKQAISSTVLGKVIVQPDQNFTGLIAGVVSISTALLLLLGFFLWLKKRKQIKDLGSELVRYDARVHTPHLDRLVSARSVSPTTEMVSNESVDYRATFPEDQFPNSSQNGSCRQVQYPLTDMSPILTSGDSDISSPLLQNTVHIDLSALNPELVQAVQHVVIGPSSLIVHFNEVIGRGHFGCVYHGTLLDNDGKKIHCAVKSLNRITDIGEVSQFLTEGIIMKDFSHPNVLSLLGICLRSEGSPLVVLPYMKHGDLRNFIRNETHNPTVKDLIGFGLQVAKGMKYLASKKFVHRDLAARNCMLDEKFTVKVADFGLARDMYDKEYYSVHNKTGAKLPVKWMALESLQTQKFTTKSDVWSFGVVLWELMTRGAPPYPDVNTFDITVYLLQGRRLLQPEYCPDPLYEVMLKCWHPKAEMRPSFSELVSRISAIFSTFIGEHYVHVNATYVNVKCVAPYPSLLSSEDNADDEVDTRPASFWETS
Chain of CD44 (P16070 24-742): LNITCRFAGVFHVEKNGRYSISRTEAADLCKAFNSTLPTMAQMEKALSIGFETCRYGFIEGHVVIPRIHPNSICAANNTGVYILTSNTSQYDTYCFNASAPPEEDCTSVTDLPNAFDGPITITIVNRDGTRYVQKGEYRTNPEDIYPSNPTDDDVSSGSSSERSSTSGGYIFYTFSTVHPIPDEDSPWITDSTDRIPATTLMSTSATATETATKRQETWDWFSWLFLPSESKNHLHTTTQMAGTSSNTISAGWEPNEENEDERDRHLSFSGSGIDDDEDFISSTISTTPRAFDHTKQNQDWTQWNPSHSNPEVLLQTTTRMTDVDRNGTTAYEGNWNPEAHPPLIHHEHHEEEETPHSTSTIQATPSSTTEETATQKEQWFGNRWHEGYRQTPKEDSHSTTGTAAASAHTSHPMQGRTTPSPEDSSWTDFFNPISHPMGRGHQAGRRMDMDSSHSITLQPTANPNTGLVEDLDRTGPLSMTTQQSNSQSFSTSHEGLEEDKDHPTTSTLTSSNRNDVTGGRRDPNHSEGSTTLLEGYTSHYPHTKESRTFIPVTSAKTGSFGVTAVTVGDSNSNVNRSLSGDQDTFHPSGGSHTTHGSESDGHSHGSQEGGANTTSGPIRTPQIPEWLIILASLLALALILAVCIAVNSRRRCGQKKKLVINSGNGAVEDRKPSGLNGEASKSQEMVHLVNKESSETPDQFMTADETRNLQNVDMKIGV

B1: 067-126 antibody (antibody, V domains shown)
VH: QVQLQESGPGLVKPSGTLSLTCAVSGGSISSSNWWSWVRQPPGKGLEWIGEIYHSGSTNYNPSLKSRVTISVDKSKNQFSLKLSSVTAADTAVYYCARGGSYYFDYWGQGTLVTVSR
VL: QSALTQPASVSGSPGQSITISCTGTISDVGGYDFVSWYQHHPGKAPKLLIYDVNNRPSGVSHRFSGSKSGNTASLTISGLQAEDEATYYCSSYSNRHSLIVFGSGTQVVGLG
notes: Clone of the scFv-CL-cp3 phage library
Consider B1, for which the binding result in test [1] was “binds”.

B2: 067-133 antibody (antibody, V domains shown)
VH: QVQLQQWGAGLLKPSETLSLTCAVYGGSFSGYYWSWIRQPPGKGLEWIGEINHSGSTNYNPSLKSRVTISVDTSKNQFSLKLSSVTAADTAVYYCARGGGVEALNYGMDVWGQGTTVTVSR
VL: QSALTQPASVSGSPGQTITISCTGTISDVGGYDFVSWYQHHPGKAPKLLIYDVNNRPSGVSHRFSGSKSGNTASLTISGLQAEDEATYYCSSYSNRHSLIVFGSGTQVVGLG
notes: as for B1
For B2, the binding result in test [1] is “binds”.

B3: 067-287 antibody (antibody, V domains shown)
VH: QVQLQQWGAGLLKPSETLSLTCTVHGGSFDDYYWTWIRQPPGGGLEWIGEMNSGRTYNYNPFLESRASIDVDTFKKQFSLALRSVTAADTAVYYCARGAYVNYYYIDVWGDGTTVTVSR
VL: QSALTQPASVSGSPGQTITISCTGTISDVGGYDFVSWYQHHPGKAPKLLIYDVNNRPSGVSHRFSGSKSGNTASLTISGLQAEDEATYYCSSYSNRHSLIVFGSGTQVVGLG
notes: as for B1
On to B3, for which the binding result in test [1] is “binds”.

B4: 064-003 antibody (antibody, V domains shown)
VH: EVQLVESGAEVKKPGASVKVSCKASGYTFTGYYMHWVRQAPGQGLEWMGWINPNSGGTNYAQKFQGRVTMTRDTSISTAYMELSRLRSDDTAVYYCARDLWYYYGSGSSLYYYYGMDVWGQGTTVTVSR
VL: QSVLTQPPSVSGAPGQRVTISCTGSSSNIGAGYDVHWYQQLPGTAPKLLIYGNSNRPSGVPDRFSGSKSGTSASLAITGLQAEDEADYYCQSYDSSLSGVVFGGGTKLTVLG
notes: as for B1
For B4, the binding result in test [2] is given as “binds”.

B5: 065-030 antibody (antibody, V domains shown)
VH: QVQLQQWGAGLLKPSETLSLTCAAYGGSFSGYYWSWIRQPPGKGLEWIGEINHSGSTNYNPSLKSRVTISVDTSKNQFSLKLSSVTAADTAVYYCARTYYGSGSYQYNWFDPWGQGTLVTVSR
VL: QSVLTQPPSVSGAPGQRVTISCTGSSSNIGAGYDVHWYQQLPGTAPKLLIYGNSNRPSGVPDRFSGSKSGTSASLAITGLQAEDEADYYCQSYDSSLSGVVFGGGTKLTVLG
notes: as for B1
For B5, the binding result in test [3] is “binds”.

B6: 067-213 antibody (antibody, V domains shown)
VH: EVQLVESGGGLVQPGRSLRLSCAASGFTFDDYAMHWVRQAPGKGLEWVSGISWNSGSIGYADSVKGRFTISRDNAKNSLYLQMNSLRAEDTALYYCVRSGSYNYYYYGMDVWGQGTTVTVSR
VL: not shown
notes: as for B1
On to B6, for which, in test [4], the binding result is reported as “binds”.

B7: 040-107 antibody (antibody, V domains shown)
VH: EVQLVESGGGVVQPGGSLRLSCAASGFNFDVYGMNWVRQVPGKGLEWVSLINGDGGLRYYADSVKGRFTVSRDNSRNSLYLQMNSLRSEDTALYYCVKGNFQQWGQGTLVTVSR
VL: SYVLTQPPSVSVAPGKTARITCGGNNIGSKSVHWYQQKPGQAPVLVIYYDSDRPSGIPERFSGSNSGNTATLTISRVEAGDEADYYCQVWDSSSDHVVFGGGTKLTVLG
notes: Clone of the scFv-CL-cp3 phage library; pp type (protein A fusion) used for immunoprecipitation
For the molecule B7, in test [5], the binding result is given as “binds”.

B8: 065-358 antibody (antibody, V domains shown)
VH: EVQLVESGGGLVQPGGSLRLSCAASGFTFSSYSMNWVRQAPGKGLEWVSYISSSSSTIYYADSVKGRFTISRDNAKNSLYLQMNSLRDEDTAVYYCARDNLEGLDYWGQGTLVTVSR
VL: SYVLTQPPSVSVAPGKTARITCGGNNIGSKSVHWYQQKPGQAPVLVIYYDSDRPSGIPERFSGSNSGNTATLTISRVEAGDEADYYCQVWDSSSDHVVFGGGTKLTVLG
notes: as for B1
With B8, the binding result in test [3] was “binds”.

B9: 064-044 antibody (antibody, V domains shown)
VH: QVQLVQSGAEVKKPGASVKVSCKVSGYTLTELSMHWVRQAPGKGLEWMGGFDPEDGETIYAQKFQGRVTMTEDTSTDTAYMELSSLRSEDTAVYYCATDLDYYGSGSYAFDIWGQGTTVTVSR
VL: QSALTQPASVSGSPGQSITISCTGTSSDVGSYNLVSWYQQHPGKAPKLMIYEGSKRPSGVSNRFSGSKSGNTASLTISGLQAEDEADYYCSSYTSSSTWVFGGGTKLTVLG
notes: as for B1
For the molecule B9, in test [3], the binding result is “binds”.

B10: 083-131 antibody (antibody, V domains shown)
VH: EVQLVESGGGVVQPGRSLRLSCAASGFTFDDYAMHWVRQAPGKGLEWVSGISWNSGSIGYADSVKGRFTISRDNAKNSLYLQMNSLRAEDTAVYYCATEEWWRFDLWGRGTLVTVSR
VL: QSALTQPPSASGSPGQSVTISCTGTSSDVDDYNYVSWYQQHPGKAPKLMIYEVTKRPSGVPDRFSGSKSGNTASLTISGLQAEDEADYYCSSYVGSDNRVFGTGTKVTVPG
notes: as for B1
Turning to B10, in test [6], the binding result is listed as “binds”.

B11: 035-234 antibody (antibody, V domains shown)
VH: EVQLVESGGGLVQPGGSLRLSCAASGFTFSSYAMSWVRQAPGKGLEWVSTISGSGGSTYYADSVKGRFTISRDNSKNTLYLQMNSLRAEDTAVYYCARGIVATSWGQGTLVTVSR
VL: SYELTQPPSVSVAPGQTARITCGGNKIGSKSVHWYQQKQGQAPVLVIYLDRDRPSGIPERFSGSNSGNTATLTITRVEAEDEADYYCHLWDSGSDQVFGGGTKLTVLG
notes: as for B7
With B11, the binding result in test [5] is on record as “binds”.

B12: 067-153 antibody (antibody, V domains shown)
VH: QVQLQESGGGLVQPGGSLRLSCTTSGFTFTSYAMSWVRQAPGKGLEWVSSISGSGGITYYADSVKGRFTISRDNSKNTLYLQMNSLRAEDTAVYYCAKDRVLVPASSSYFDYWGQGTLVTVSR
VL: SSELTQDPAVSVALGQTVRITCQGDSLRSYYASWYQQKPGQAPVLVIYGKNNRPSGIPDRFSGSSSGNTASLTITGAQAEDEADYYCNSRDSSGNHVVFGGGTKLTVLG
notes: as for B1
Regarding B12, the binding result in test [7] is reported as “binds”.

B13: 066-019 antibody (antibody, V domains shown)
VH: QVQLQESGPGLVKPSQTLSLTCTVSGGSISSGDYYWSWIRQPPGKGLEWIGYIYYSGSTYYNPSLKSRVTISVDTSKNQFSLKLSSVTAADTAVYYCARGTGDLEWFDPWGQGTLVTVSR
VL: QSVLTQPPSVSGAPRQTVTISCSGSSSNIGQNSVTWYQRLPGEAPKLLIYYDDLLHSGVSDRFSGSKSGTSASLAISGLQSEDEAEYYCASWDDSLKGPVFGGGTKLTVLG
notes: as for B1
B13: the binding result in test [3] is “binds”.

B14: 079-085 antibody (antibody, V domains shown)
VH: EVQLVESGGGLVQPGGSLRLSCAASGFTFSSYSMNWVRQAPGKGLEWVSYISSSSSTIYYADSVKGRFTISRDNAKNSLYLQMNSLRDEDTAVYYCAREGPRGSYYYFDYWGQGTLVTVSR
VL: NFMLTQPHSVSESPGKTVTISCTRSSGSIASNYVQWYQQRPGSAPTTVIYEDNQRPSGVPDRFSGSIDSSSNSASLTISGLKTEDEADYYCQSYDSSNWVFGGGTKLTVLG
notes: as for B1
As for B14, the binding result in test [3] is “binds”.

B15: 041-118 antibody (antibody, V domains shown)
VH: EVQLVESGGGLVQPGGSLRLSCAASGFTFDDYAMHWVRQAPGKGLEWVSLISGDGGSTYYADSVKDRFTISRDNSKNSLYLQMNSLRAEDTAVYYCARGNYFDYWGQGTLVTVSR
VL: SYELTQPLSVSVALGQTARITCGGNNIGSKNVHWYQQKPGQAPVLVIYRDSNRPSGIPERFSGSNSGNTATLTISRAQAGDEADYYCQVWDSSVVFGGGTKLTVLG
notes: as for B7
With B15, the binding result in test [8] is on record as “binds”.
